According to the RNAGym collection of RNA variant scans (doi:10.1073/pnas.2313332121):

B1: TPR t1 (parent)
chain: GACCAAUCUGCCCUCAGAGCUCGAGAACAUCUUCGGAUGCAGAGGAGGCAGGCUUCGGUGGCGCGAUAGCGCCAACGUCCUCAACCUCCAAUGCAUCCCACCACAUGAUGAUGCCUGAAGAGCCUUGGUUUUUUG

Variants of: B1
Assay: polymerase ribozyme fitness, log enrichment relative to wild type (log ratio); higher = more active; in vitro selection for triplet polymerase activity
In short: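 A single round of triplicate in vitro selection, including frozen incubation at −7 °C, was applied to PCR-built, transcribed mutant libraries of each subunit of a heterodimeric triplet polymerase ribozyme. Illumina sequencing of input and output libraries retained genotypes with ≥10 input reads and ≥1 read per output. Fitness is the base-2 logarithm of genotype enrichment divided by wild-type enrichment, from inverse-variance-weighted replicate averages.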
In the case of GACCAAUCUGCCCUCAGAGCUCGAGAACAUCUUCGGAUGCAGAGGAGGCAGGCUUCGGUGGCGCGAUAGCGGCAACGUCCUCAACCUCCAAUGCAUCCCACCACAUGAUCAUGCCUGAAGAGCCUUGGUUUUUUG, the “polymerase ribozyme fitness (log ratio)” value is reported as -2.42. For GACCAAUCUGCCCUCAGAGCUCGAGAACAUCUUCGGAUGCAGAGGAGGCAGGCUUCGGUGGCGCGAUAGCGGCAACGUCCUCAACCUCCAAUGCAUCCCACCACAUGAUGAUGCCUGAAGAACCUUGGUUUUUUG, the “polymerase ribozyme fitness (log ratio)” value was -1. For GACCAAUCUGCCCUCAGAGCUCGAGAACAUCUUCGGAUGCAGAGGAGGCAGGCUUCGGUGGCGCGAUAGCGGCAACGUCCUCAACCUCCAAUGCAUCCCACCACAUGAUGAUGCCUGAAGAGCCUUGCUUUUUUG, the “polymerase ribozyme fitness (log ratio)” value was -2.25. For GACCAAUCUGCCCUCAGAGCUCGAGAACAUCUUCGGAUGCAGAGGAGGCAGGCUUCGGUGGCGCGAUAGCGGCAACGCCCUCAACCUCCAAUGCAUCCCACCACAUGAUGAUGCCUGAAGAGCCUUGGUUUUUUG, the “polymerase ribozyme fitness (log ratio)” value was -0.909. With GACCAAUCUGCCCUCAGAGCUCGAGAACAUCUUCGGAUGCAGAGGAGGCAGGCUUCGGUGGCGCGAUAGCGGCAACGGCCUCAACCUCCAAUGCAUCCCACCACAUGAUUAUGCCUGAAGAGCCUUGGUUUUUUG the “polymerase ribozyme fitness (log ratio)” value was -2.55. For GACCAAUCUGCCCUCAGAGCUCGAGAACAUCUUCGGAUGCAGAGGAGGCAGGCUUCGGUGGCGCGAUAGCGGCAACGUCCACAACCUCCAAUGCAUCCCACCACAUGAUGAUGCCUGAAGAGCCUUGGUAUUUUG, the “polymerase ribozyme fitness (log ratio)” value was -1.44. For GACCAAUCUGCCCUCAGAGCUCGAGAACAUCUUCGGAUGCAGAGGAGGCAGGCUUCGGUGGCGCGAUAGCGGCAACGUCCUCAACCUCCAAAGCAUCCCACCACAUGAUGAUGCCUGAAGAGCCUUGGUUUUUUG, the “polymerase ribozyme fitness (log ratio)” value was -3.94. For GACCAAUCUGCCCUCAGAGCUCGAGAACAUCUUCGGAUGCAGAGGAGGCAGGCUUCGGUGGCGCGAUAGCGGCAACGUCCUCAACCUCCAAGGCAUCCCACCACAUGAUGAUGCCUGAAGAGCCUUGGUUUUUUG, the “polymerase ribozyme fitness (log ratio)” value was -3.48. In the case of GACCAAUCUGCCCUCAGAGCUCGAGAACAUCUUCGGAUGCAGAGGAGGCAGGCUUCGGUGGCGCGAUAGCGGCAACGUCCUCAACCUCCAAUGCAACCCACCACAUGAUGAUGCCUGAAGAGCCUUGGUUUUUUG, the “polymerase ribozyme fitness (log ratio)” value is reported as -2.18. In the case of GACCAAUCUGCCCUCAGAGCUCGAGAACAUCUUCGGAUGCAGAGGAGGCAGGCUUCGGUGGCGCGAUAGCGGCAACGUCCUCAACCUCCAAUGCACCCCACCACAUGAUGAUGCCUGAAGAGCCUUGGUUUUUUG, the “polymerase ribozyme fitness (log ratio)” value is reported as -1.25. With GACCAAUCUGCCCUCAGAGCUCGAGAACAUCUUCGGAUGCAGAGGAGGCAGGCUUCGGUGGCGCGAUAGCGGCAACGUCCUCAACCUCCAAUGCAUCCCACCACAUGAAGAUGCCUGAAGAGACUUGGUUUUUUG the “polymerase ribozyme fitness (log ratio)” value was -5.46. With GACCAAUCUGCCCUCAGAGCUCGAGAACAUCUUCGGAUGCAGAGGAGGCAGGCUUCGGUGGCGCGAUAGCGGCAACGUCCUCAACCUCCAAUGCAUCCCACCACAUGAUGAUGCCAGAAGAGCCUUGGUUUUUUG the “polymerase ribozyme fitness (log ratio)” value was -3.49. In the case of GACCAAUCUGCCCUCAGAGCUCGAGAACAUCUUCGGAUGCAGAGGAGGCAGGCUUCGGUGGCGCGAUAGCGGCAACGUCCUCAACCUCCAAUGCAUCCCACCACAUGAUGAUGCCUGAAGAGCCUUGGUGUUUUG, the “polymerase ribozyme fitness (log ratio)” value is reported as -1.24. In the case of GACCAAUCUGCCCUCAGAGCUCGAGAACAUCUUCGGAUGCAGAGGAGGCAGGCUUCGGUGGCGCGAUAGCGGCAACGUCCUCAACCUCCAAUGCAUCCCACCACAUGAUGAUGCCUGAAGAGCCUUGGUUUAUUG, the “polymerase ribozyme fitness (log ratio)” value is reported as -0.151. In the case of GACCAAUCUGCCCUCAGAGCUCGAGAACAUCUUCGGAUGCAGAGGAGGCAGGCUUCGGUGGCGCGAUAGCGUCUACGUCCCCAACCUCCAAUGCAUCCCACCACAUGAUGAUGCCUGAAGAGCCUUGGUUUUUUG, the “polymerase ribozyme fitness (log ratio)” value is reported as -0.388. For GACCAAUCUGCCCUCAGAGCUCGAGAACAUCUUCGGAUGCAGAGGAGGCAGGCUUCGGUGGCGCGAUAGCGUCAACGUCCUCUACCUCCAAUGCAUCCCACCACAUGAUGAUGCCUGAAGAGCCUUGGUUUUUUG, the “polymerase ribozyme fitness (log ratio)” value was -1.1. For GACCAAUCUGCCCUCAGAGCUCGAGAACAUCUUCGGAUGCAGAGGAGGCAGGCUUCGGUGGCGCGAUAGCGUCAACGUCCUCAGCCUCCAAUGCAUCCCACCACAUGAUGAUGCCUCAAGAGCCUUGGUUUUUUG, the “polymerase ribozyme fitness (log ratio)” value was -4.48. For GACCAAUCUGCCCUCAGAGCUCGAGAACAUCUUCGGAUGCAGAGGAGGCAGGCUUCGGUGGCGCGAUAGCGUCAACGUCCUCAUCCUCCAAUGCAUCCCAACACAUGAUGAUGCUUGAAGAGCCUUACUUUUUUG, the “polymerase ribozyme fitness (log ratio)” value was -6.94. In the case of GACCAAUCUGCCCUCAGAGCUCGAGAACAUCUUCGGAUGCAGAGGAGGCAGGCUUCGGUGGCGCGAUAGCGUCAACGUCCUCAUCCUCCAAUGCAUCCCAUCACAUGAUGAUGCCUGAAGAGCCUUGGUUUUUUG, the “polymerase ribozyme fitness (log ratio)” value is reported as -0.839. With GACCAAUCUGCCCUCAGAGCUCGAGAACAUCUUCGGAUGCAGAGGAGGCAGGCUUCGGUGGCGCGAUAGCGUCAACGUCCUCAACCUCCACUGCAUCCCACCACAUGAUGAUGCCUGAAGAGCCUUAGUUUUUUG the “polymerase ribozyme fitness (log ratio)” value was -2.46. For GACCAAUCUGCCCUCAGAGCUCGAGAACAUCUUCGGAUGCAGAGGAGGCAGGCUUCGGUGGCGCGAUAGCGUCAACGUCCUCAACCUCCAAUGCCUUCCACCACAUGAUGAUGCCUGAAGAGCCUUGGUUUUUUG, the “polymerase ribozyme fitness (log ratio)” value was -2.94. In the case of GACCAAUCUGCCCUCAGAGCUCGAGAACAUCUUCGGAUGCAGAGGAGGCAGGCUUCGGUGGCGCGAUAGCGUCAACGUCCUCAACCUCCAAUGCAUCCCACCCCAUGAUGAUGCCUGAAGAGCCUUGGUUUUUUG, the “polymerase ribozyme fitness (log ratio)” value is reported as -4.5. In the case of GACCAAUCUGCCCUCAGAGCUCGAGAACAUCUUCGGAUGCAGAGGAGGCAGGCUUCGGUGGCGCGAUAGCGUCAACGUCCUCAACCUCCAAUGCAUCCCACCACAUGGUGAUGCCUGAAGAGCCUUGGUUUUUUG, the “polymerase ribozyme fitness (log ratio)” value is reported as -1.96. In the case of GACCAAUCUGCCCUCAGAGCUCGAGAACAUCUUCGGAUGCAGAGGAGGCAGGCUUCGGUGGCGCGAUAGCGUCAACGUCCUCAACCUCCAAUGCAUCCCACCACAUGAUGUUGCCUGAAGAGCCUUGGUUUUUUG, the “polymerase ribozyme fitness (log ratio)” value is reported as -2.46. In the case of GACCAAUCUGCCCUCAGAGCUCGAGAACAUCUUCGGAUGCAGAGGAGGCAGGCUUCGGUGGCGCGAUAGCGUCAACGUCCUCAACCUCCAAUGCAUCCCACCACAUGAUGAUGCCUGUAGAGCCUUGGUCUUUUG, the “polymerase ribozyme fitness (log ratio)” value is reported as 0.16. In the case of GACCAAUCUGCCCUCAGAGCUCGAGAACAUCUUCGGAUGCAGAGGAGGCAGGCUUCGGUGGCGCGAUAGCGUCAACGUCCUCAACCUCCAAUGCAUCCCACCACAUGAUGAUGCCUGAAGCGCCUUGGUUUUUGG, the “polymerase ribozyme fitness (log ratio)” value is reported as 1.71. For GACCAAUCUGCCCUCAGAGCUCGAGAACAUCUUCGGAUGCAGAGGAGGCAGGCUUCGGUGGCGCGAUAGCGUAAACGUCCUCAACCUCCAUUGCAUCCCACCACAUGAUGAUGCCUGAAGAGCCUUGGUUCCUUG, the “polymerase ribozyme fitness (log ratio)” value was -2.72. For GACCAAUCUGCCCUCAGAGCUCGAGAACAUCUUCGGAUGCAGAGGAGGCAGGCUUCGGUGGCGCGAUAGCGUUAACGUCCUCAACCUCCAAUGCAUCCCACCACAUGAUGAUGCCUGAAGAGCCUUGGUUUUUUG, the “polymerase ribozyme fitness (log ratio)” value was -1.09. With GACCAAUCUGCCCUCAGAGCUCGAGAACAUCUUCGGAUGCAGAGGAGGCAGGCUUCGGUGGCGCGAUAGCGUCAAUGUCCUCAACCUCCAAUGCAUCCCACCACAUGAUGAUGCCUGAAGAGCCUUGGUUUUUUG the “polymerase ribozyme fitness (log ratio)” value was 0.954. For GACCAAUCUGCCCUCAGAGCUCGAGAACAUCUUCGGAUGCAGAGGAGGCAGGCUUCGGUGGCGCGAUAGCGUCAACGUACUCAACCUCCAAUGCAUCCCACCACAUGAUGAUGCUUGAAGAGCCUUGGUUUUUUG, the “polymerase ribozyme fitness (log ratio)” value was -3.58. With GACCAAUCUGCCCUCAGAGCUCGAGAACAUCUUCGGAUGCAGAGGAGGCAGGCUUCGGUGGCGCGAUAGCGUCAACGUACUCAACCUCCAAUGCAUCCCACCACACGAUGAUGCCUGAAGAGCCUUGGUUUUUUG the “polymerase ribozyme fitness (log ratio)” value was -1.81. With GACCAAUCUGCCCUCAGAGCUCGAGAACAUCUUCGGAUGCAGAGGAGGCAGGCUUCGGUGGCGCGAUAGCGUCAACGUGCUCAACCUCCAAUGCAUCCCACCACAUGAUGAUGCCUGAAGAGCCUUGGUUUUUUG the “polymerase ribozyme fitness (log ratio)” value was -1.97. In the case of GACCAAUCUGCCCUCAGAGCUCGAGAACAUCUUCGGAUGCAGAGGAGGCAGGCUUCGGUGGCGCGAUAGCGUCAACGUGCUCAACCUCCAAUGCAUCCCACCACAUGAUGAUACCUGAAGAGCCUUGGUUUUUUG, the “polymerase ribozyme fitness (log ratio)” value is reported as -4.23. In the case of GACCAAUCUGCCCUCAGAGCUCGAGAACAUCUUCGGAUGCAGAGGAGGCAGGCUUCGGUGGCGCGAUAGCGUCAACGUGCUCAACCUCCAAUGCAUCCCACCACAUGAUGAUCCCUGUAGAGCCUUGGUUUUUUG, the “polymerase ribozyme fitness (log ratio)” value is reported as -5.9. For GACCAAUCUGCCCUCAGAGCUCGAGAACAUCUUCGGAUGCAGAGGAGGCAGGCUUCGGUGGCGCGAUAGCGUCAACGUUCUCAACCUCCAAUGCAACCCACCACAUGAUGAUUCCUGAAGAGCCUUGGUUUUUUG, the “polymerase ribozyme fitness (log ratio)” value was -4.45. In the case of GACCAAUCUGCCCUCAGAGCUCGAGAACAUCUUCGGAUGCAGAGGAGGCAGGCUUCGGUGGCGCGAUAGCGUCAACGUCCUCAAGCUCCAAUGCAUCCCACCACAUGAUGAUGCCUGAAGAGCCUUGGUUUUUUG, the “polymerase ribozyme fitness (log ratio)” value is reported as -2.48. In the case of GACCAAUCUGCCCUCAGAGCUCGAGAACAUCUUCGGAUGCAGAGGAGGCAGGCUUCGGUGGCGCGAUAGCGUCAACGUCCUCAAUCUCCAAUGCAUCCCACCACAUGAAGAUGCCUGAAGGGCCUUGGUUUUUUG, the “polymerase ribozyme fitness (log ratio)” value is reported as -4.72. With GACCAAUCUGCCCUCAGAGCUCGAGAACAUCUUCGGAUGCAGAGGAGGCAGGCUUCGGUGGCGCGAUAGCGUCAACGUCCUCAACUUCCAAUGCAUCCCACCACAUGAUGAUGCCUGAAGAGCCUUGGUUUUUUG the “polymerase ribozyme fitness (log ratio)” value was -0.347. In the case of GACCAAUCUGCCCUCAGAGCUCGAGAACAUCUUCGGAUGCAGAGGAGGCAGGCUUCGGUGGCGCGAUAGCGUCAACGUCCUCAACCUGCCGUGCAUCCCACCACAUGAUGAUGCCUGAAGAGCCUUGGUUUUUUG, the “polymerase ribozyme fitness (log ratio)” value is reported as -4.6. For GACCAAUCUGCCCUCAGAGCUCGAGAACAUCUUCGGAUGCAGAGGAGGCAGGCUUCGGUGGCGCGAUAGCGUCAACGUCCUCAACCUCAAAUGCAUCCCACCAUAUGAUGAUGCCUGAAGAGCCGUGGUUUUUUG, the “polymerase ribozyme fitness (log ratio)” value was -1.18. In the case of GACCAAUCUGCCCUCAGAGCUCGAGAACAUCUUCGGAUGCAGAGGAGGCAGGCUUCGGUGGCGCGAUAGCGUCAACGUCCUCAACCUCCAAUGAAUCCCACCACAUGAUGAUGCCUGAAGAGCCAUGGUUUUUUG, the “polymerase ribozyme fitness (log ratio)” value is reported as -1.59. In the case of GACCAAUCUGCCCUCAGAGCUCGAGAACAUCUUCGGAUGCAGAGGAGGCAGGCUUCGGUGGCGCGAUAGCGUCAACGUCCUCAACCUCCAAUGCAUUCCACCACAUGAUGAUGCCUGAAGAGCCUUGGUUUUUUG, the “polymerase ribozyme fitness (log ratio)” value is reported as -1.45.
